The text below walks through data of patent US6762290.

The target in series [1] is VEGFR2 (KDR) extracellular domain/Fc (Homo sapiens) (UniProt P35968). The series is described as follows: filter. The following applies: 2'-F pyrimidines.
For a further series, the target named is c-Met/Fc (UniProt P08581). The series is described as follows: filter. The conditions noted are these: 2'-F pyrimidines.
Series [2] has as its target VEGFR1 (Flt-1) extracellular domain/Fc (UniProt P17948). The series is described as follows: filter. The conditions noted are these: 2'-F pyrimidines; HBSMC, 37 C.
For series [3], the target named is VEGF receptors on HUVEC (VEGFR2/KDR) (Homo sapiens) (UniProt P35968). The experiment in a line: competition. The conditions noted are these: 2'-F pyrimidines; inhibition of 125I-VEGF-165 binding to HUVEC.
Chain of VEGF receptors on HUVEC (VEGFR2/KDR) (Homo sapiens) (P35968 20-1356): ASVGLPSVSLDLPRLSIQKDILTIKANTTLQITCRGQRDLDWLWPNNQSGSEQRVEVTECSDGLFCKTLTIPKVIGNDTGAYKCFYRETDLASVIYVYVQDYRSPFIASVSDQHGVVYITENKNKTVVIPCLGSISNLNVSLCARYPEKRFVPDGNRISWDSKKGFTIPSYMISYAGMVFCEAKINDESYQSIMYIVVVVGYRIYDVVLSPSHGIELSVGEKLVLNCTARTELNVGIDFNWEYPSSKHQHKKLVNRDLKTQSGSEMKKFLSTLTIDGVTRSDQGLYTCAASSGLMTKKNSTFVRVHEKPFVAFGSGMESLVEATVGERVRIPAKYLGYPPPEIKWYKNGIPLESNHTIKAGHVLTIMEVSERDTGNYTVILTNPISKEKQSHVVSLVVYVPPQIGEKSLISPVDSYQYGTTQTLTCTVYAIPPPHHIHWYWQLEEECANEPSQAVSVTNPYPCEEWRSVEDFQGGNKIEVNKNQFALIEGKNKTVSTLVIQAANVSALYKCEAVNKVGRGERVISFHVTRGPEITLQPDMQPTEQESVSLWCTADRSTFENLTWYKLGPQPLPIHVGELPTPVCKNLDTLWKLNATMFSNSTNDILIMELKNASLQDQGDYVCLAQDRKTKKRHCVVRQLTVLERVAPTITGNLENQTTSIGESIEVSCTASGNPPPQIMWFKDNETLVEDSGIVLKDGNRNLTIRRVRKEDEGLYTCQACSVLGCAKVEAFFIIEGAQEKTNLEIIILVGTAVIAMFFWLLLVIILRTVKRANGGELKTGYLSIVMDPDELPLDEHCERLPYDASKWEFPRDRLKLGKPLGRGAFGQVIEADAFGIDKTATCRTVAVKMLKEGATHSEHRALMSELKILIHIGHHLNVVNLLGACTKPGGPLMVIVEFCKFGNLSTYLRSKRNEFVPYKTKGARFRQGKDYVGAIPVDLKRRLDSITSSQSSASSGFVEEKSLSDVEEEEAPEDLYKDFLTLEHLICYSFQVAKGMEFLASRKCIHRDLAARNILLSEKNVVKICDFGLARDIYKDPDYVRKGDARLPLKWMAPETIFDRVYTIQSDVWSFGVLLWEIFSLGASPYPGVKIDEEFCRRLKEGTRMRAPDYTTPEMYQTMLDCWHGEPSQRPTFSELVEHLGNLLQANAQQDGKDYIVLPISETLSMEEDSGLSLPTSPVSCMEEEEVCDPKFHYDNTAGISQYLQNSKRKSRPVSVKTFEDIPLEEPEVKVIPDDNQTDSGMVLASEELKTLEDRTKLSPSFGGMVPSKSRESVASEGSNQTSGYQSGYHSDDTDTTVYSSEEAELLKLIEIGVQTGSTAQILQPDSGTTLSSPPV

Chain of VEGFR2 (KDR) extracellular domain/Fc (Homo sapiens) (P35968 20-764): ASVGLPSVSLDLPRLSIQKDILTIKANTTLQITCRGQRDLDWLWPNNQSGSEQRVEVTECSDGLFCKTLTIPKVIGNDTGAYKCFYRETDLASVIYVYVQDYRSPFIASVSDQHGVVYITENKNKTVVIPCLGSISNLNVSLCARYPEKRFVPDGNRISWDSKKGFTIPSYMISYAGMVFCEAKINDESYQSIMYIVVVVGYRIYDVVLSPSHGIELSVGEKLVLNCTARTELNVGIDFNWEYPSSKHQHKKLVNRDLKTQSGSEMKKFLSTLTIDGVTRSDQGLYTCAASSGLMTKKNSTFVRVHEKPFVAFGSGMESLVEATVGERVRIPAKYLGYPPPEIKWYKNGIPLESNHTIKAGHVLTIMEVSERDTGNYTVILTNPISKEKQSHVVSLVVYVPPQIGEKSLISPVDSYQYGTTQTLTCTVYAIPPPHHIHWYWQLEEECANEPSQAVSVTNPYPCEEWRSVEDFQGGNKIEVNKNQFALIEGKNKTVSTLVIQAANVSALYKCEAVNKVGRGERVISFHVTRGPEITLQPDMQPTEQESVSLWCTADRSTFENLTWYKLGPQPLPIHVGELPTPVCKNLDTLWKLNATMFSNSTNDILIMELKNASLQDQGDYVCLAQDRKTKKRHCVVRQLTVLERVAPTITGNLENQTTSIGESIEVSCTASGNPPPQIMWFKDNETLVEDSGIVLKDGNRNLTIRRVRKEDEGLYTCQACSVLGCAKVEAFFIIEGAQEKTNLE
Chain of VEGFR1 (Flt-1) extracellular domain/Fc (P17948 27-758): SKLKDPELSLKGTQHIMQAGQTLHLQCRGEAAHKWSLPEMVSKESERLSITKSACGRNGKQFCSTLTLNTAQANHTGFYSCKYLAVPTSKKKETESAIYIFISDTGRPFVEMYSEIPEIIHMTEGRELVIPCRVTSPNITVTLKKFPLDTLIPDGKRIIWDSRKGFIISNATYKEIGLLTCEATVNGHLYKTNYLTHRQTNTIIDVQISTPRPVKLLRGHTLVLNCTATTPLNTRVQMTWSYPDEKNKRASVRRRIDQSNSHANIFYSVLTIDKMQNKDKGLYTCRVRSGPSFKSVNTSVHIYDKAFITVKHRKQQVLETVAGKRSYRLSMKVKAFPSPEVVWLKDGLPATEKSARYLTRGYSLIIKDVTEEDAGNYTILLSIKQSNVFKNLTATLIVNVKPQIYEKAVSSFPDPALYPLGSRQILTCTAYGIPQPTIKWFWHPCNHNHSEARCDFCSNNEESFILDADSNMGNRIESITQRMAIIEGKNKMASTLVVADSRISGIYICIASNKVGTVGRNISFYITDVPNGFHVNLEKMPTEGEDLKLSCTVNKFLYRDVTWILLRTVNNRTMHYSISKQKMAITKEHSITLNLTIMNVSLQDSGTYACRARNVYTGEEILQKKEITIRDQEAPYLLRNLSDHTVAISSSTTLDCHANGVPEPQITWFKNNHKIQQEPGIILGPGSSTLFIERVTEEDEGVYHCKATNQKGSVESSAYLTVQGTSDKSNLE
Chain of c-Met/Fc (P08581 25-932): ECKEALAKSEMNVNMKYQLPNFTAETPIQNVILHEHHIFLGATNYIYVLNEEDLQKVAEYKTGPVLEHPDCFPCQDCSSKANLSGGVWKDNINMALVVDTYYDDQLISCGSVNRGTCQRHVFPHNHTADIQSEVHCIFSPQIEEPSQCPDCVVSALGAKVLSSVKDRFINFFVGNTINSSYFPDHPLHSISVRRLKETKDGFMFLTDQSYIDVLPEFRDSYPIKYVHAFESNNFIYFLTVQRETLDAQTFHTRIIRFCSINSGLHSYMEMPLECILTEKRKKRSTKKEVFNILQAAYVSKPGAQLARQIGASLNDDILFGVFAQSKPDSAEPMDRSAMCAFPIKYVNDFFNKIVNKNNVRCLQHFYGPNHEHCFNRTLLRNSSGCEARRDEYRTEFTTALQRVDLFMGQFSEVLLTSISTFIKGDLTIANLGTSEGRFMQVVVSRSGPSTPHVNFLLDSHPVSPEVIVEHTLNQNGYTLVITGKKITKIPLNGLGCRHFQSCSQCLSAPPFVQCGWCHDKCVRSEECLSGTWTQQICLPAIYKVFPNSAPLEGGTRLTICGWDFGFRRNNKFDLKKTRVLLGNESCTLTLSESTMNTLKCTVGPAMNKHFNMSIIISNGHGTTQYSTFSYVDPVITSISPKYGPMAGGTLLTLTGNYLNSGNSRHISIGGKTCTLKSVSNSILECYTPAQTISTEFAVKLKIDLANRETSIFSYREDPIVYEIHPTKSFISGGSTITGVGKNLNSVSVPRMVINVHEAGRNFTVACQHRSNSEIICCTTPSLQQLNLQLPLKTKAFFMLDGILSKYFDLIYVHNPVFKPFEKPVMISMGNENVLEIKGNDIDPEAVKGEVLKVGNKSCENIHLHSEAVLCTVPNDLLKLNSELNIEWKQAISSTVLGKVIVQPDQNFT

A word on the Kd: it is a measure of binding affinity in units of concentration. High values mean lower affinity, low ones higher affinity. Consider “GGGAGGACGAUGCGGNNNNNNNNNNNNNNNNNNNNNNNNNNNNNNNNNNNNNNNNCAGACGACUCGCCCGA [KDR SELEX round 3 pool]”, for which the Kd in series [1] (HBSMC, 37 C) amounted to 0.8 nM. Sequence “GGGAGGACGAUGCGGNNNNNNNNNNNNNNNNNNNNNNNNNNNNNNNNNNNNNNNNCAGACGACUCGCCCGA [KDR SELEX round 2 pool]” displayed a dissociation constant (Kd) in series [1] (HBSMC, 37 C) of 0.68 nM. “GGGAGGACGAUGCGGNNNNNNNNNNNNNNNNNNNNNNNNNNNNNNNNNNNNNNNNCAGACGACUCGCCCGA [KDR SELEX round 6 pool]” displayed a Kd in series [1] (HBSMC (Mg, Ca), 37 C) of 0.44 nM. Regarding “GGGAGGACGAUGCGGNNNNNNNNNNNNNNNNNNNNNNNNNNNNNNNNNNNNNNNNCAGACGACUCGCCCGA [KDR SELEX round 5 pool]”, the Kd in series [1] (HBSMC, 37 C) worked out at 0.83 nM; in series [1] (comparison with cMet/Fc), 0.76 nM; with c-Met/Fc (specificity control for Fc binding), 74 nM.

As for “GGGAGGACGAUGCGGAGCACUUGACCCACNACCAGAAAGCCAGCCCAGACGACUCGCCCGA [K6]”, in series [1] (30N clone), the Kd turned out to be 0.98 nM. Turning to “GGGAGGACGAUGCGGNNNNNNNNNNNNNNNNNNNNNNNNNNNNNNNNNNNNNNNNCAGACGACUCGCCCGA [40N7 starting random library (round 0)]”, the Kd was 36 nM in series [1] (HBSMC, 37 C); 361 nM in series [1] (as printed, differs from 36 ± 3 nM in Table 1 legend); 58 nM in the series with c-Met/Fc (specificity control); 0.2 nM in series [2]. “GGGAGGACGAUGCGGNNNNNNNNNNNNNNNNNNNNNNNNNNNNNNNNNNNNNNNNCAGACGACUCGCCCGA [KDR SELEX round 4 pool]” registered an equilibrium dissociation constant (Kd) in series [1] (HBSMC, 37 C) of 0.581 nM.

Consider “GGGAGGACGAUGCGGNNNNNNNNNNNNNNNNNNNNNNNNNNNNNNNNNNNNNNNNCAGACGACUCGCCCGA [Flt-1 SELEX round 5 pool]”, for which the dissociation constant Kd in series [2] is 0.093 nM. Regarding “GGGAGGACGAUGCGGAUCAUACCGGGUCAUAACACCGNUCACGGGGCCUUNUCGUCAGACGACUCGCCCGA [K24]”, the dissociation constant (Kd) in series [1] (circularly permuted family member) worked out at 0.97 nM. Broadly, the IC50 is the concentration at which inhibition is half-maximal. A higher IC50 goes with weaker potency in that assay. For the sequence “GGGAGGACGAUGCGGACANAUAACACAGGGCCUGCUUGGAUCACACUGAUUGCGCCCAGACGACUCGCCCGA [K17]”, the Kd in series [1] came out at 0.24 nM. In series [3], this sequence had an IC50 of 163 nM.
